Here are results for one molecule from patent US10894811B2, “Peptide inhibitors of calcium channels” (The University of North Carolina at Chapel Hill, priority 2016, dated 2021).

In experiment [1] the target is T1, Orai1 (Homo sapiens, UniProt Q96D31). Briefly: Surface labeling and ground state depletion super resolution microscopy. Format: cell-based. Details: expressed in transfected cells. As to conditions: ASMC plasma membranes, after 1 h incubation. As for the experimental part:
Surface labeling and super resolution microscopy: Human ASMs were grown on 22×22 mm^2 glass coverslips and transfected with the HA-Orai1. 24 h after transfection, cells were fixed with 4% paraformaldehyde (PFA) in PBS, followed by surface labeling with mouse anti-HA antibody (BioLegend) and Alexa 488 goat anti mouse antibody (Life Technologies) at 4° C. After washing with ice cold PBS for five times, cells were incubated with 5 μM SPLUNC1-DyLight 594 for 1 h at 4° C. prior to imaging.
Prior to mounting, 90 μl of oxygen depleting medium, β-Mercaptoethylamine (MEA) was added to the cavity of depression slides. Coverslips were then mounted on the depression slides and sealed with twinsil (Picodent). Super resolution images were captured with a commercial LEICA GSD super-resolution microscope. Ground state depletion (GSD) was performed using 488 nm and 642 nm m solid-state lasers. Samples were excited using 488 nm and 642 nm lasers and sample acquisition was increased with back-pumping using the 405 nm laser as per the manufacturer's instructions. The microscope was fitted with a 160× oil-immersion objective lens.

Experiment [2] addresses T1, Orai1. Briefly: Co-immunoprecipitation in HEK293T cell lysates (V5-SPLUNC1 / HA-Orai1). It counts as binding. Details: expressed in transfected cells; host or cells: HEK293T. The conditions noted are these: HEK293T cells cotransfected with V5-SPLUNC1 and HA-Orai1. As for the experimental part: (§1) DNA constructs: Yellow fluorescent protein (YFP) tagged human Orai1 and Myc tagged TRPC3 were gifts from Dr. Craig Montell (Addgene plasmid #25902) and Dr. Anjana Rao (Addgene plasmid #19756), respectively. HA tagged human Orai1 was a generous gift from Dr. Patrick G Hogan at La Jolla Institute for Allergy & Immunology. pcDNA3.1(+)-V5-SPLUNC1 was a generous gift from Dr. Colin D Bingle at the University of Sheffield.
(§2) For immunoprecipitation, cell lysates were collected at 48 h post-transfection in Pierce® IP lysis buffer in the presence of 1× protease inhibitor cocktail (PIC) (Roche). Cell lysates were pre-cleared with protein A/G agarose beads and then incubated with 1 μg of antibodies against HA (BioLegend) or V5 (Invitrogen) with protein A/G agarose beads on a rotator at 4° C. overnight. After three washes with IP lysis buffer, immunoprecipitated complexes were eluted in sample buffer (50 mM Tris-HCl [pH 6.8], 2% sodium dodecyl sulfate (SDS), 10% glycerol, 5% (v/v) β-mercaptoethanol (BME), 0.1% bromophenol blue) by heating the samples at 95° C. for 5 min, electrophoresed through SDS-polyacrylamide gels, and subjected to immunoblot analysis.

The next experiment concerns tracheal rings. The experiment in a line: Myography of murine tracheal rings (ex vivo contraction). Details: species or system mouse. As to conditions: pretreatment with recombinant SPLUNC1 protein for 1 h prior to agonist addition. The method, then: Myography of Murine Tracheal Rings: Tracheas were excised from 8-week old SPLUNC1 WT and KO mice. After removing excessive connecting tissue, the trachea was cut into ˜4-mm rings, mounted on a DMT 620M myography apparatus and allowed to rest in modified Ringer's solution (119 mM NaCl, 4.7 mM KCl, 1.17 mM MgSO4, 1.18 mM KH2PO4, 2.5 mM CaCl2, 25 mM NaHCO3, 0.027 mM EDTA, 5.5 mM glucose) with continuous oxygenation (95% O2/5% CO2) at 37° C. for 20 min with no applied tension. Optimal passive tension (1 mN) was then applied to the rings. The baseline force was then recorded after stable tension was achieved. The induced contractile force of each ring was assessed by measuring contraction stimulated by 60 mM KCl or […] Ach (unless indicated otherwise), respectively.

The target of a further experiment is T2, TRPC3 (Homo sapiens, UniProt Q13507).
T2 construct: host or cells: HEK293T
T2 sequence (Q13507 74-921 limits assumed): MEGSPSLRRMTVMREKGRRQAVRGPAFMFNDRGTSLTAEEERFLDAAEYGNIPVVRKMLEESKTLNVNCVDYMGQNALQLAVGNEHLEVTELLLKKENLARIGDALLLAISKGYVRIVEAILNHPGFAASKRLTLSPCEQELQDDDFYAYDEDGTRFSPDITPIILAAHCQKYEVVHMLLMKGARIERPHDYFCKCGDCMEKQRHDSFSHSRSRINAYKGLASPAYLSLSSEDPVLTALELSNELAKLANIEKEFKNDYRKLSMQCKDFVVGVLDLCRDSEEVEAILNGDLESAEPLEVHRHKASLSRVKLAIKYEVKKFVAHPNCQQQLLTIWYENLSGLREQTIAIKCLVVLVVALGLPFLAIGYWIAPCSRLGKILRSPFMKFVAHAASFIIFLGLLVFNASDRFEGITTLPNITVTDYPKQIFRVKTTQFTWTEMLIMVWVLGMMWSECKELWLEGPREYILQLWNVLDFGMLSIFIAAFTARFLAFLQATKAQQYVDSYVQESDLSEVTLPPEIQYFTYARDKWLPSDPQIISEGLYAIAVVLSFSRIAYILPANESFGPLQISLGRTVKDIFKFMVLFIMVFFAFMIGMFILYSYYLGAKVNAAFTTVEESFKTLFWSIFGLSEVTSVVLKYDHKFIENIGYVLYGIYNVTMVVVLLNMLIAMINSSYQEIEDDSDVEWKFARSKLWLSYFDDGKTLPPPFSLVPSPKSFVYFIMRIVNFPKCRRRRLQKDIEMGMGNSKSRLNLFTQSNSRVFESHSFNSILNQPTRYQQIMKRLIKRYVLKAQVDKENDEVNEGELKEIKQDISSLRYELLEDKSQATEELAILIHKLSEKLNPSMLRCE
The experiment in a line: Co-immunoprecipitation in HEK293T cell lysates (V5-SPLUNC1 / Myc-TRPC3). It counts as binding. The conditions noted are these: HEK293T cells cotransfected with V5-SPLUNC1 and Myc-TRPC3. As for the experimental part: as §1, §2

Entries after “also recorded” stand apart in the source; their conditions may differ.

T1 sequence (Q96D31 whole entry): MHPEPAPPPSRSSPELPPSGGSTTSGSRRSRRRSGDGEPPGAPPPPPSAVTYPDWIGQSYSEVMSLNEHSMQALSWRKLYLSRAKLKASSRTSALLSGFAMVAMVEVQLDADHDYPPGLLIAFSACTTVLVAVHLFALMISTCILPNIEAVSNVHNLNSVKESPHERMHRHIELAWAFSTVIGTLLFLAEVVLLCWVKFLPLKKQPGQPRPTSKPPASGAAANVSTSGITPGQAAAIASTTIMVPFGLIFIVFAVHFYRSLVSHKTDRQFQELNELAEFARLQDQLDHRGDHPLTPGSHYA

B1: SPLUNC1: Short palate, lung and nasal epithelium clone 1, recombinant full length protein (protein, listed as Homo sapiens)
chain: MFQTGGLIVFYGLLAQTMAQFGGLPVPLDQTLPLNVNPALPLSPTGLAGSLTNALSNGLLSGGLLGILENLPLLDILKPGGGTSGGLLGGLLGKVTSVIPGLNNIIDIKVTDPQLLELGLVQSPDGHRLYVTIPLGIKLQVNTPLVGASLLRLAVKLDITAEILAVRDKQERIHLVLGDCTHSPGSLQISLLDGLGPLPIQGLLDSLTGILNKVLPELVQGNVCPLVNEVLRGLDITLVHDIVNMLIHGLQFVIKV
Consider B1, for which the “co-localization of SPLUNC1 and Orai1” value with Orai1 [1] is reported as “co-localize in ASMC plasma membranes”. Besides, the “co-immunoprecipitation with Orai1” value in the experiment with Orai1 [2] is recorded as “could be co-immunoprecipitated; also recorded: interacting with Orai1”. Besides, the “contraction (contractile force) of tracheal rings” value in the experiment on tracheal rings is “suppressed contraction”. The “co-immunoprecipitation with TRPC3” value with TRPC3 was “but not an alternate Ca^2+ channel (TRPC3), could be co-immunoprecipitated; also recorded: does not interact with TRPC3”.
